Laboratory results from patent US20180119164A1.

Legend:
Test in all cases: cell-based or functional assay
[1] = molecular target: Env of HIV pseudovirus PVO (HIV strain PVO)
[2] = molecular target: Env of HIV pseudovirus CAP45 (HIV strain CAP45)
[3] = molecular target: Env of HIV pseudovirus JRFL (HIV strain JRFL)
[4] = molecular target: Env of HIV pseudovirus ZM214M (HIV strain ZM214M)
[5] = molecular target: Env of HIV pseudovirus MN (HIV strain MN) (UniProt P05877)
[6] = molecular target: Env of HIV pseudovirus ADA (HIV strain ADA)
[7] = molecular target: Env of HIV pseudovirus YU2 (HIV strain YU2) (UniProt P35961)
[8] = molecular target: Env of HIV pseudovirus JRCSF (HIV strain JRCSF) (UniProt P20871)
[9] = molecular target: Env of HIV pseudovirus DU156.12 (HIV strain DU156.12)
[10] = molecular target: Env of HIV pseudovirus DU422.1 (HIV strain DU422.1)
[11] = molecular target: Env of HIV pseudovirus TRO.11 (HIV strain TRO.11)

Chain of UniProt P05877 (P05877 32-856 limits assumed): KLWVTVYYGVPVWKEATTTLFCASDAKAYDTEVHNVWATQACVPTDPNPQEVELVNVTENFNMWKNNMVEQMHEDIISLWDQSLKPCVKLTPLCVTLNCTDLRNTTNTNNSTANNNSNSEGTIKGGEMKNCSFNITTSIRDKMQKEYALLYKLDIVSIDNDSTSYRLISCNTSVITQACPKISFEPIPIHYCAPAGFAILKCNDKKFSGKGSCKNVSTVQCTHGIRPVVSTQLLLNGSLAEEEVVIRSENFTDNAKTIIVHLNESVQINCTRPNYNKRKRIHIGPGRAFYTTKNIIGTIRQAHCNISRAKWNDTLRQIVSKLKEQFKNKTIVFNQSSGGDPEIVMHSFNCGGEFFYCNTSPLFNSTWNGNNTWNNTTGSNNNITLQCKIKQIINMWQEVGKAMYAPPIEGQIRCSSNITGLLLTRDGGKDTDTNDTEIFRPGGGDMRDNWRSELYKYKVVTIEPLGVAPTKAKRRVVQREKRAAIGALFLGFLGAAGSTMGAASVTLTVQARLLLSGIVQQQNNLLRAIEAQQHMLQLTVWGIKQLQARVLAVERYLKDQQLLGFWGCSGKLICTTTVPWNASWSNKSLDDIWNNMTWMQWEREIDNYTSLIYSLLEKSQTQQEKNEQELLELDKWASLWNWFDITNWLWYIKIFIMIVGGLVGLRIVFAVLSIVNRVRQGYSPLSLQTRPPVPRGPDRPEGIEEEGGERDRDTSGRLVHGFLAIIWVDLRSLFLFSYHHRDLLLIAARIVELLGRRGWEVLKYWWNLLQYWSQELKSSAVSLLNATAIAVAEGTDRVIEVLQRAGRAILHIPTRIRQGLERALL
Chain of UniProt P20871 (P20871 32-848 limits assumed): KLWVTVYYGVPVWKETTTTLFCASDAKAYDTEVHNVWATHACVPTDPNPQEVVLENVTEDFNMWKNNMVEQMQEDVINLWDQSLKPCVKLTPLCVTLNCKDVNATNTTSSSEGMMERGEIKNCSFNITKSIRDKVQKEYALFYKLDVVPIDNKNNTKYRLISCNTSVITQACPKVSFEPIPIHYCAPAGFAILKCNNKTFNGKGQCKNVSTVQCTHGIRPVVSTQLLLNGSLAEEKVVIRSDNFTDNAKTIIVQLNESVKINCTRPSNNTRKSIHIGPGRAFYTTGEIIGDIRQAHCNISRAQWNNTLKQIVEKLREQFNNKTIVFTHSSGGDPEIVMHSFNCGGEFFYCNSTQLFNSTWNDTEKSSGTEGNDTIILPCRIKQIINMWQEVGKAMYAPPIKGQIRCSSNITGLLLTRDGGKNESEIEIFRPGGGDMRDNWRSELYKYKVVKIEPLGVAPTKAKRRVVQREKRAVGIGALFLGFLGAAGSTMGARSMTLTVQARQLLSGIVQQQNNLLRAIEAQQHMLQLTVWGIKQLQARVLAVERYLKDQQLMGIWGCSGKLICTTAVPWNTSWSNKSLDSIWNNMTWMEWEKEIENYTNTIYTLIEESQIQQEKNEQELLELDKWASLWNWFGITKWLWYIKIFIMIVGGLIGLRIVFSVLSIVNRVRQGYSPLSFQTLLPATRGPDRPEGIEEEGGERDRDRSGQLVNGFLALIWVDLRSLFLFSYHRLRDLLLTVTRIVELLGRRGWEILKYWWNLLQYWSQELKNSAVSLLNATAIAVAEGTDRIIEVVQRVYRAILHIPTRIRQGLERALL
Chain of UniProt P35961 (P35961 32-843 limits assumed): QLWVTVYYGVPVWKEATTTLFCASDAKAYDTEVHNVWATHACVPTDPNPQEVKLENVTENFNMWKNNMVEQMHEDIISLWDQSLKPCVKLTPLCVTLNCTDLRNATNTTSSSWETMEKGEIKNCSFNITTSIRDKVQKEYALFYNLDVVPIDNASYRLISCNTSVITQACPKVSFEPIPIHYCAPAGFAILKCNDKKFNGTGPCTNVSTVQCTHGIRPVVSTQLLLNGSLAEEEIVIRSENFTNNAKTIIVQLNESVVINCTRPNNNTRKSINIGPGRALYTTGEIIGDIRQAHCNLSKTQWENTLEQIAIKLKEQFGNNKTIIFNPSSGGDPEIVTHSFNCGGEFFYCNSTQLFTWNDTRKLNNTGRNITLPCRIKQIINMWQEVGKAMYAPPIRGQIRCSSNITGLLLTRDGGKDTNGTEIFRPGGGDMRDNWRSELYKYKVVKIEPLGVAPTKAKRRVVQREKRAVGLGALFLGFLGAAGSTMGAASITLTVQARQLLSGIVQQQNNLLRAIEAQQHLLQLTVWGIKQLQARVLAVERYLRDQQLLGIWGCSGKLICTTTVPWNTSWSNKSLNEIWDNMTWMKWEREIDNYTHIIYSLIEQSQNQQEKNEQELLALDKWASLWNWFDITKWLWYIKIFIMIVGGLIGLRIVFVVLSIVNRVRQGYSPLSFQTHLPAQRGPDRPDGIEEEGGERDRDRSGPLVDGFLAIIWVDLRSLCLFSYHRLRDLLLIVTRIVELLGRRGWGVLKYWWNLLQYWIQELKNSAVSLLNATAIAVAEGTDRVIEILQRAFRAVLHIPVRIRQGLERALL

Row | Substance | IC50, pseudovirus neutralization (TZM-bl luciferase) [1] [mg/L] | IC50, pseudovirus neutralization (TZM-bl luciferase) [2] [mg/L] | IC50, pseudovirus neutralization (TZM-bl luciferase) [3] [mg/L] | IC50, pseudovirus neutralization (TZM-bl luciferase) [4] [mg/L] | IC50, pseudovirus neutralization (TZM-bl luciferase) [5] [mg/L] | IC50, pseudovirus neutralization (TZM-bl luciferase) [6] [mg/L] | IC50, pseudovirus neutralization (TZM-bl luciferase) [7] [mg/L] | IC50, pseudovirus neutralization (TZM-bl luciferase) [8] [mg/L] | IC50, pseudovirus neutralization (TZM-bl luciferase) [9] [mg/L] | IC50, pseudovirus neutralization (TZM-bl luciferase) [10] [mg/L] | IC50, pseudovirus neutralization (TZM-bl luciferase) [11] [mg/L]
1 | ^ΔXFPG9Sulf (antibody) | > 50 | 0.03 | > 50 | > 50 | > 50 | 37.4 | > 50 | < 0.02 | 1.2 | 14.3 | > 50
2 | ^ΔXFPG9 (antibody) | > 50 | 0.65 | > 50 | > 50 | > 50 | > 50 | > 50 | 0.19 | > 50 | > 50 | > 50
3 | ^ΔXFPG9SulfSia (antibody) | > 50 | < 0.02 | > 50 | > 50 | > 50 | 40.2 | > 50 | 0.03 | 0.9 | 6.6 | > 50
4 | ^CHOPG9 (antibody) | > 50 | < 0.02 | > 50 | > 50 | > 50 | 42.8 | > 50 | < 0.02 | 0.35 | 10.9 | > 50
